Experimental data: US20220002417A1 (BAILI BIO CHENGDU PHARMACEUTICAL, published 2022)

B1: AB2 (rabbit/human chimeric anti-PD-L1 antibody) (antibody, human IgG1, kappa, V domains shown)
VH: QSLEESGGRLVTPGTPLTLTCTTSGIDLSTYDMIWVRQAPGKGLEYIGIISYVGNTYYASWAKGRFTLSKTSTTVDLRITSPTTEDTATYFCARDFISGSHLWGPGTLVTVSS
VL: AYDMTQTPASVSAAVGGTVTINCQASESISSFLSWYQQKPGQRPRLLIFSASTLASGVPSRFKGSGSGTEFTLTISGVECADAATYYCQQGYSKSNVDNAFGGGTEVVVKR
notes: Rabbit variable domains on human IgG1 / human kappa constant domains; also called AB2 CHIMERIC
B2: AB1 (rabbit/human chimeric anti-PD-L1 antibody) (antibody, human IgG1, kappa, V domains shown)
VH: QEQLVESGGGLVQPEGSLTLTCKASGFSFSSGYDMCWVRRAPGKGLEWIACIAAGSAGITYDANWAKGRFTISKTSSTTVTLQMTSLTAADTATYFCARSAFSFDYAMDLWGPGTLVTVSS
VL: DPVLTQTPASVEVAVGGTVTIKCQASQSISSHLNWYQQKPGQPPKLLIYKASTLASGVPSRFKGSGSGTEFTLTISSVQCDNAATYYCQQGYSWGNVDNVFGGGTEVVVKR
notes: Rabbit variable domains on human IgG1 / human kappa constant domains; purified by protein A from HEK-293 supernatants; also called AB1 CHIMERIC
B3: AB3HU (humanized form of antibody AB3) (antibody, human IgG1, kappa, V domains shown)
VH: EVQLVESGGGLVQPGGSLRLSCAASGFSLSSYWMSWVRQAPGKGLEWIGVIDTNVYIYYANWAKGRFTISRDNSKNTLYLQMNSLRAEDTAVYYCARYVGNNDDYINLWGQGTLVTVSS
VL: DIQMTQSPSTLSASVGDRVTITCQSSQSVYNGYWLSWYQQKPGKAPKLLIYGASTLASGVPSRFSGSGSGTEFTLTISSLQPDDFATYYCLGSYTSSTENSFGGGTKVEIKR
notes: Humanized, human gamma-1 / kappa constant domains
B4: AB3 (rabbit/human chimeric anti-PD-L1 antibody) (antibody, human IgG1, kappa, V domains shown)
VH: QEQLEESGGGLVTPGGTLTLTCTVSGFSLSSYWMSWVRQAPGKGLEWIGVIDTNVYIYYANWAKGRFTISKTSTTVDLKITSPTTEDTATYFCARYVGNNDDYINLWGPGTLVTVSS
VL: AVLTQTPSPVSAAVGGTVSISCQSSQSVYNGYWLSWYQQKPGQPPKLLIYGASTLASGVPSRFKGSGSGTQFTLTINDVQCDDAATYYCLGSYTSSTENSFGGGTEVVVKR
notes: Rabbit variable domains on human IgG1 / human kappa constant domains; also called AB3 CHIMERIC
B5: AB1HU (humanized form of antibody AB1) (antibody, human IgG1, kappa, V domains shown)
VH: EVQLLESGGGLVQPGGSLRLSCAASGFSFSSGYDMCWVRQAPGKGLEWIACIAAGSAGITYDANWAKGRFTISRDNSKNTLYLQMNSLRAEDTAVYYCARSAFSFDYAMDLWGQGTLVTVSS
VL: DIQMTQSPSTLSASVGDRVTITCQASQSISSHLNWYQQKPGKAPKLLIYKASTLASGVPSRFSGSGSGTEFTLTISSLQPDDFATYYCQQGYSWGNVDNVFGGGTKVEIKR
notes: as for B3
B6: AB4 (rabbit/human chimeric anti-PD-L1 antibody) (antibody, human IgG1, kappa, V domains shown)
VH: QSVEESGGRLVTPGTPLTLTCTVSGIDLSVINMGWVRQAPGEGLEWIGTITYVGNTYYASWAKGRFTISKTSTTVDLKITSPTTEDTATYFCARESGTIYYSYFNLWGQGTLVTVSS
VL: AFELTQTPASVSEPVGGTVTIKCQASESISNYLSWYQQIPGQPPNLLIYYASNLASGVPSRFKGSGSGTEFTLTISDLECADAATYYCQSYYGGGSAYTFGGGTEVVVKR
notes: Rabbit variable domains on human IgG1 / human kappa constant domains; also called AB4 CHIMERIC
B7: AB5 (rabbit/human chimeric anti-PD-L1 antibody) (antibody, human IgG1, kappa, V domains shown)
VH: QSVEESGGRLVTPGTPLTLTCTVSGIDLNTYDMIWVRQAPGKGLEWIGIITYSGSRYYANWAKGRFTISKTSTTVDLRITSPTTEDTATYFCARDYMSGSHLWGPGTLVTVSS
VL: AYDMTQTPASVEVAVGGTVTIKCQASEDIYSFLAWYQLKPGQSPKLLIHSASSLASGVSSRFKGSGSGTHFTLTISGVECADAATYYCQQGYGKNNVDNAFGGGTEVVVKR
notes: Rabbit variable domains on human IgG1 / human kappa constant domains; also called AB5 CHIMERIC
B8: AB2HU (humanized form of antibody AB2) (antibody, human IgG1, kappa, V domains shown)
VH: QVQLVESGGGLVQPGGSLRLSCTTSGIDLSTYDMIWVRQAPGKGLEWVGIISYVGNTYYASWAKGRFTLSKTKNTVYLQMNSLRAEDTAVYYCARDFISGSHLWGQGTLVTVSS
VL: AYDMTQSPSSVSASVGDRVTINCQASESISSFLSWYQQKPGKAPKLLIFSASTLASGVPSRFSGSGSGTDFTLTISSLQPEDFATYYCQQGYSKSNVDNAFGGGTKVEIKR
notes: as for B3
B9: AB5HU (humanized form of antibody AB5) (antibody, human IgG1, kappa, V domains shown)
VH: QSVEESGGGLVQPGGSLRLSCTASGIDLNTYDMIWVRQAPGKGLEWVGIITYSGSRYYANWAKGRFTISKDNTKNTVYLQMNSLRAEDTAVYYCARDYMSGSHLWGQGTLVTVSS
VL: AYDMTQSPSSVSASVGDRVTIKCQASEDIYSFLAWYQQKPGKAPKLLIHSASSLASGVPSRFSGSGSGTDFTLTISSLQPEDFATYYCQQGYGKNNVDNAFGGGTKVEIKR
notes: as for B3
B10: AB4HU (humanized form of antibody AB4) (antibody, human IgG1, kappa, V domains shown)
VH: EVQLVESGGGLVQPGGSLRLSCTVSGIDLSVINMGWVRQAPGKGLEWIGTITYVGNTYYASWAKGRFTISKTSTTVDLKITSPTTEDTAVYYCARESGTIYYSYFNLWGQGTLVTVSS
VL: AFELTQSPSSLSASVGDRVTIKCQASESISNYLSWYQQIPGKVPKLLIYYASNLASGVPSRFSGSGSGTDFTLTISSLQPEDVATYYCQSYYGGGSAYTFGGGTKVEIKR
notes: as for B3

Target: T1, human PD-L1 extracellular domain (human, UniProt Q9NZQ7 19-238)
T1 construct: also called recombinant PD-L1; recombinant human PD-L1 extracellular domain protein
Test: BLI (Octet Red 96), antibody on anti-human Fc biosensor, PD-L1 ECD in solution, 1:1 global fit
Method: The binding kinetics of selected anti-PD-L1 antibodies AB1-AB5 and AB1HU-AB5HU was determined by bio-layer interferometry analysis on a ForteBio Octet Red 96 instrument. First, purified antibodies were produced by protein A chromatography using HEK-293 transiently-transfected antibody supernatants. This assay was performed by immobilizing the purified antibodies to anti-human Fc biosensors. PD-L1 binding to and dissociation from the biosensors was then observed at various concentrations of PD-L1. Specifically, eight anti-human Fc biosensors were placed into wells containing the same purified antibody for 5 minutes. Biosensors were equilibrated in kinetics buffer (Pall ForteBio) for 1 minute to establish a baseline. Association of PD-L1 was observed by placing the biosensors into wells containing various concentrations of human PD-L1 extracellular domain for 5 minutes. Dissociation was measured after transfer of the biosensors into kinetics buffer and monitoring the interferometry signals for 15 minutes. All steps of the assay were performed at 30° C. with shaking at 1000 RPM. The on and off rates (kon and koff) and the equilibrium binding constant KD were determined using the software provided by the manufacturer and were fit using a 1:1 binding global fit model comprising several of the concentrations tested.

T1 sequence (Q9NZQ7 19-238 limits assumed): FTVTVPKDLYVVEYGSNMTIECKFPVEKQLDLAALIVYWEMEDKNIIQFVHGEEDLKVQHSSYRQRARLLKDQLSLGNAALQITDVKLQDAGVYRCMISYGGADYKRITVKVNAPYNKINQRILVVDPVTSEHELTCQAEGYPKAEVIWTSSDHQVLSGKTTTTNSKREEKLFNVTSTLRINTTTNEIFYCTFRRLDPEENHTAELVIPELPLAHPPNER

B1 and B2 are within 1.5-fold of each other in Kd: 0.379 nM for the first, 0.347 nM for the second.

Compared with B3, B4 is 3.9-fold lower in Kd: 1.81 nM for the first, 0.467 nM for the second. The second binds more tightly here.

First: B5
Second: B6
The Kd of the first is 2.4-fold lower: 0.422 nM for the first, 1.01 nM for the second. The first binds more tightly here.

B7 and B8 are within 1.5-fold of each other in Kd: 0.286 nM for the first, 0.366 nM for the second.

First: B9
Second: B10
The Kd of the first is 4.2-fold lower: 0.401 nM for the first, 1.7 nM for the second.

B1 and B2 are within 1.5-fold of each other in koff: 0.000166 s⁻¹ for the first, 0.00015 s⁻¹ for the second.

Compared with B3, B4 is 2.3-fold lower in koff: 0.000337 s⁻¹ for the first, 0.000144 s⁻¹ for the second.

Going from B5 to B6, the koff rises from 0.000239 s⁻¹ to 0.000422 s⁻¹ (1.8-fold).

B7 and B8 are within 1.5-fold of each other in koff: 0.000175 s⁻¹ for the first, 0.000203 s⁻¹ for the second.

Compared with B9, B10 is 3.3-fold higher in koff: 0.000234 s⁻¹ for the first, 0.000766 s⁻¹ for the second.

B1 and B2 are within 1.5-fold of each other in kon: 438000 M⁻¹ s⁻¹ for the first, 433000 M⁻¹ s⁻¹ for the second.

Compared with B3, B4 is 1.7-fold higher in kon: 186000 M⁻¹ s⁻¹ for the first, 308000 M⁻¹ s⁻¹ for the second.

B5 and B6 are within 1.5-fold of each other in kon: 568000 M⁻¹ s⁻¹ for the first, 417000 M⁻¹ s⁻¹ for the second.

B7 and B8 are within 1.5-fold of each other in kon: 613000 M⁻¹ s⁻¹ for the first, 553000 M⁻¹ s⁻¹ for the second.

B9 and B10 are within 1.5-fold of each other in kon: 583000 M⁻¹ s⁻¹ for the first, 451000 M⁻¹ s⁻¹ for the second.
